Measurements published in patent US20210009714A1 (Regeneron, published 2021).

Legend:
Tie2 = biological target: T1, Tie2 (UniProt Q02763 23-748, limits assumed); assay: BIAcore
T1 construct: also called Tie2 receptor

human Fc* homodimer = biological target: T2, human Fc* homodimer (human); assay: SPR (Biacore 2000); mAb captured on anti-mouse-Fc surface, Fc dimer injected; 1:1 fit
T2 construct: also called Fc*/Fc*; human ΔAdpFc polypeptide
Procedure: Measurements to determine binding affinities and kinetic constants were made on a Biacore 2000 instrument. […] Kinetic association (kₐ) and dissociation (kd) rate constants were determined by processing and fitting the data to a 1:1 binding model using Scrubber 2.0 curve fitting software.

[1] = biological target: IgG1 Fc*/Fc* monospecific antibody; assay: flow cytometry sandwich: antibody displayed on cells by CSCP FcγR, labeled Ab6 as detection molecule
[2] = biological target: IgG1 Fc/Fc monospecific antibody; assay: as above
[3] = biological target: IgG1 Fc/Fc* bispecific antibody; assay: as above
[4] = biological target: IgG1 Fc/Fc monospecific antibody; assay: flow cytometry sandwich: antibody displayed on cells by CSCP ScFv-FcγR, hFc block, FITC-labeled Ab6 as detection molecule
[5] = biological target: IgG4 Fc/Fc* bispecific antibody; assay: as above
[6] = biological target: IgG1 Fc/Fc* bispecific antibody; assay: as above
[7] = biological target: IgG4 Fc/Fc monospecific antibody; assay: as above
[8] = biological target: IgG1 Fc/Fc monospecific antibody; assay: flow cytometry sandwich: antibody displayed on cells by CSCP FcγR, labeled Ab2 as detection molecule
[9] = biological target: IgG4 Fc/Fc* bispecific antibody; assay: as above
[10] = biological target: IgG4 Fc*/Fc* monospecific antibody; assay: as above
[11] = biological target: IgG1 Fc/Fc* bispecific antibody; assay: as above
[12] = biological target: IgG4 Fc/Fc monospecific antibody; assay: as above

T1 sequence (Q02763 23-748 limits assumed): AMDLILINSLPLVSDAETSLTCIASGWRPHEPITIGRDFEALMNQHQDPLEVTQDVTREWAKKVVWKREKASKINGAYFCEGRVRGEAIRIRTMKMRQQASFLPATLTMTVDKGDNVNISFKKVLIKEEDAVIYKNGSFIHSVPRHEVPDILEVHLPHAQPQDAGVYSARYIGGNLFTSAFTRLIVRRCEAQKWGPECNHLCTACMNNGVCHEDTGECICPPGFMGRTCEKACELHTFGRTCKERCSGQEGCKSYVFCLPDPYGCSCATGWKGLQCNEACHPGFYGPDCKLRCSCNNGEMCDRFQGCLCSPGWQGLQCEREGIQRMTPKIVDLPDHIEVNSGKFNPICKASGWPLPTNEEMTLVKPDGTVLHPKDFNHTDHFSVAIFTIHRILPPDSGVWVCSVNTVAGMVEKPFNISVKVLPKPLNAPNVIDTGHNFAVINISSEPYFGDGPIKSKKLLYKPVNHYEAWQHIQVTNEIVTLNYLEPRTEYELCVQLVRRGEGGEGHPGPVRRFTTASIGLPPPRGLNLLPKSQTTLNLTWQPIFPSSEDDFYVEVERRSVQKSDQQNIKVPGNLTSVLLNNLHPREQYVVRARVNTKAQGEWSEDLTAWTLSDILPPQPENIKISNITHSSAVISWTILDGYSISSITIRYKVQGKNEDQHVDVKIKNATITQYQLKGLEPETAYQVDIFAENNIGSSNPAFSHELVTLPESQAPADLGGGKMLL

B1: FD1-hFc (Fc fusion, UniProt Q15389 277-498, looked up)
chain: REEEKPFRDCADVYQAGFNKSGIYTIYINNMPEPKKVFCNMDVNGGGWTVIQHREDGSLDFQRGWKEYKMGFGNPSGEYWLGNEFIFAITSQRQYMLRIELMDWEGNRAYSQYDRFHIGNEKQNYRLYLKGHTGTAGKQSSLILHGADFSTKDADNDNCMCKCALMLTGGWWFDACGPSNLNGMFYTAGQNHGKLNGIKWHYFKGPSYSLRSTTMMIRPLDF
notes: also called FD1-Fc; not shown: hFc
**Q.** B1 was tested. Which Kd (Tie2) did it give?
**A.** The Kd was 174 nM.

B2: Ab6 (antibody, mouse IgG2a, kappa, V domains shown)
VH: EVQLVESGGAIVKPGGSHRVSCEASGFTFSNAWMSWVRQAPGRGLEWVGRILSKTDGGTTDYAAPVKDRFTISRDDSKNMLFLQMDSLKIEDTAVYFCTTADFWSAYSSDYWGQGTLVTVSS
VL: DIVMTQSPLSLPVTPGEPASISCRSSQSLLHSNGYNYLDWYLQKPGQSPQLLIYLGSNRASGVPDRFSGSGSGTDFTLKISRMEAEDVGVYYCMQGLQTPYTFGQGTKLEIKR
notes: also called Fc*-specific Ab6; Ab6 anti-Fc* antibody
**Q.** Which t1/2 (human Fc* homodimer) does the source give for B2 here?
**A.** The t1/2 was 19 min.

**Q.** What about the MFI [1] of the same binder?
**A.** Its MFI is 200.

**Q.** And the MFI [2]?
**A.** Its MFI is 200.

**Q.** What about the MFI [3] of the same binder?
**A.** The MFI was 200.

**Q.** What about the MFI [4] of the same binder?
**A.** Its MFI is 15.

**Q.** And the MFI [5]?
**A.** Its MFI is 500.

**Q.** And the MFI [6]?
**A.** The MFI was 500.

**Q.** And the MFI [7]?
**A.** The MFI was 15.

B3: Ab2 (antibody, V domains shown)
VH: QLQQSGAELAKPGASVKMSCKASGYTFTNYWIHWEKQRPEQGLEWIGYINPNTGHTEYNQKFKDKATLTADRSSSTAYMQLSSLTSEDSAVYFCARTYSGSSHFDYWGQGTTL
VL: DIVMTQTPVSLPVSLGDQASISCRSSQSLVHNNGDTFLHWYLQKPGQSPKLLIYKVSNRFSGVPDRFSGSGSGTDFTLKISRVEAEDLGVYFCSQTTLIPRTFGGGTKLEI
notes: Monoclonal from Velocimmune mice, captured on an anti-mouse-Fc surface in the SPR study; also called Fc-specific Ab2; Ab2 anti-Fc antibody
**Q.** Which MFI [8] does the source give for B3 here?
**A.** The MFI was 350.

**Q.** And the MFI [9]?
**A.** The MFI was 200.

**Q.** And the MFI [10]?
**A.** Its MFI is 200.

**Q.** What about the MFI [11] of the same binder?
**A.** Its MFI is 500.

**Q.** And the MFI [12]?
**A.** Its MFI is 200.
